Laboratory results from paper PMC5989136.

Biological target: H4 conjugated to SUMO (UniProt P62799)
Assay: refolding of the histone complex, analysed by SDS-PAGE

stoichiometry N: 1 H3K23ac:H4
Substance: H3K23ac (H3 with acetylation at K23) (from UniProt P84233 1-136) (natural protein)
